In patent US20110312518A1:

Assays:
[1] = system: T1, Src peptide substrate KVEKIGEGTYGVVYK
T1 sequence: KVEKIGEGTYGVVYK

[2] = target: phospho-CrkL recombinant protein; assay: sandwich immunoassay, 96-well plate, 12 hours: Y244 capture, phospho-CrkL analyte, 4G10 and FITC anti-mouse detection
[3] = target: phospho-CrkL recombinant protein; assay: sandwich immunoassay, microfluidic chip, 1 hour: Y244 capture, phospho-CrkL analyte, 4G10-coated beads counted

| Substance | detection limit (kinase activity, beads bound/counted) [1] | Current limit of detection [2] | Current limit of detection [3] |
| --- | --- | --- | --- |
| Src kinase | resulting in a detection limit of 100 fM |  |  |
| rabbit anti-CrkL monoclonal antibodies (clone Y244, Novus Biologicals #NB110-56895) (antibody) |  | 1 nM | 100 pM |
